{
  "source": "patent US20090068207A1",
  "about": "“Compositions Containing Beta 2-Glycoprotein I-Derived Peptides for the Prevention and/or Treatment of Vascular Disease” (Vascular Biogenics Ltd., priority 2005, published 2009)",
  "type_in_all_cases": "in vivo",
  "key": {"LDL-RD mice [1]": {"test_system": "LDL-RD mice", "test": "Aortic sinus lesion area after nasal tolerance induction, Western diet", "conditions": "End, mean ± S.E", "description": "Nasal Tolerance: Nasal tolerance was induced by intranasal administration of oxidized LDL, β2GPI, β2GPI-derived peptides or HSP65, in a total volume of 10 μl PBS. Intranasal administration was performed on mildly sedated mice (12-16 weeks old), each mouse receiving 3 doses of antigen per dose, in the indicated concentrations, every other day. Atherogenesis was induced by 5 weeks of a Western diet initiated on the day following the last intranasal administration, or assessed (in Apo E KO mice) after 8 weeks on a chow diet. Controls received equal amounts of BSA and/or PBS, as indicated, in an identical regimen. Plasma was obtained for assessment of cholesterol and triglyceride levels from all mice, and the mice were sacrificed for evaluation of atherosclerosis, as described hereinbelow, after 5 weeks Western diet, or (in Apo E KO mice) after 8 weeks on a chow diet.\nAssessment of Atherosclerosis: Quantification of atherosclerotic fatty streak lesions was done by calculating the lesion size in the aortic sinus as previously described (16) and by calculating the lesion size in the aorta. Briefly, after perfusion with saline Tris EDTA, the heart and the aorta were removed from the animals and the peripheral fat cleaned carefully. The upper section of the heart was embedded in OCT medium (10.24% w/w polyvinyl alcohol; 4.26% w/w polyethylene glycol; 85.50% w/w nonreactive ingredients) and frozen. Every other section (10 μm thick) throughout the aortic sinus (400 μm) was taken for analysis. The distal portion of the aortic sinus was recognized by the three valve cusps that are the junctions of the aorta to the heart. Sections were evaluated for fatty streak lesions after processing and staining with oil-red O, according to Paigen et al (Atherosclerosis, 1987; 68:231-40). Lesion areas per section were scored on a grid (17) by an observer counting unidentified, numbered specimens. The aorta was dissected from the heart and surrounding adventitious tissue was removed. Fixation of the aorta and Sudan staining of the vessels were performed as previously described (21).\nMice were bled prior to feeding (Time 0) and at the conclusion of the experiment (End) for determination of lipid profile. Atherosclerosis was assessed in heart and aorta as described above, 8 weeks after the last feeding. Mice were weighed every 2 weeks during the experiment. All mice were fed water ad libitum and a normal chow-diet containing 4.5% fat by weight (0.02% cholesterol), up to the final antigen exposure, and then a “Western” diet until sacrifice.\nThus, nasal exposure to a low dose and an exceedingly low dose of recombinant human HSP 65 were compared for their effectiveness in suppressing atherogenesis in LDL-RD mice. 58 male 12-16 week old LDL-RD mice were divided into 4 groups."}, "ApoE-KO mice": {"test_system": "ApoE-KO mice", "test": "Aortic sinus lesion area after oral administration in ApoE-KO mice", "conditions": "End t = 16 wks; oral 50 μg/mouse; ApoE-KO mice; mean ± S.E", "text": "(§1) Assessment of Atherosclerosis: Quantification of atherosclerotic fatty streak lesions was done by calculating the lesion size in the aortic sinus as previously described (16) and by calculating the lesion size in the aorta. Briefly, after perfusion with saline Tris EDTA, the heart and the aorta were removed from the animals and the peripheral fat cleaned carefully. The upper section of the heart was embedded in OCT medium (10.24% w/w polyvinyl alcohol; 4.26% w/w polyethylene glycol; 85.50% w/w nonreactive ingredients) and frozen. Every other section (10 μm thick) throughout the aortic sinus (400 μm) was taken for analysis. The distal portion of the aortic sinus was recognized by the three valve cusps that are the junctions of the aorta to the heart. […] Lesion areas per section were scored on a grid (17) by an observer counting unidentified, numbered specimens. The aorta was dissected from the heart and surrounding adventitious tissue was removed. Fixation of the aorta and Sudan staining of the vessels were performed as previously described (21).\nIn order to determine the protective effect of mucosal administration of β2GPI on development of atherosclerosis, adult ApoE-KO mice were treated with oral administration of human β2GPI. 20 week-old male ApoE-KO mice, having advanced atherosclerotic lesions were treated monthly with human β2GPI (50 μg/dose) or PBS (0.2 ml) in 5 oral administrations (by gavage, as described hereinabove) given every other day, for four months. Lesion area calculated from cryosections of the aortic sinus were compared between control untreated 20 week old mice, and mice following 16 weeks oral administration of β2GPI or PBS.\n10-11 week-old male ApoE-KO mice, having early atherosclerotic lesions, were treated with 5 oral administrations (by gavage, as described hereinabove) given every other day of human β2GPI peptide S-4 (SEQ ID NO: 14) or human β2GPI (50 μg/dose) or PBS (0.2 ml). Lesion areas calculated from cryosections of the aortic sinus were compared between control untreated, human β2GPI treated and S-4 human β2GPI-derived peptide treated mice at 8 weeks following the last oral administration of the antigens, or of PBS."}, "LDL-RD mice [2]": {"test_system": "LDL-RD mice", "test": "Aortic sinus lesion area after oral administration, Western diet", "conditions": "for Aortic sinus lesion (μm^2): End, mean ± S.E", "method": "Oral Tolerance: For comparison, oral tolerance to plaque-associated molecules was induced by feeding […] of antigen every other day (for a detailed account of induction of oral tolerance, see U.S. patent application Ser. No. 09/806,400 to Shoenfeld et al filed Sep. 30, 1999), in a similar regimen to the nasal tolerance. LDL-RD mice were fed by a nasogastric tube, five doses (every other day) of human or bovine β2GPI in PBS in two different concentrations (500 and 50 μg/dose).\nOral tolerance to β2GPI-derived peptides, alone or in combination was induced by feeding 100 μg of the peptides (prepared in PBS, 0.2 ml), as detailed hereinabove, every other day for a total of 5 doses of 100 μg. One day following the last feeding, all mice were switched from chow-diet to an atherogenic “Western” diet and sacrificed five weeks later.\nas §1\nLDL-receptor deficient (LDL-RD; LDLR −/−) mice created on a C57BL/6 background develop accelerated atherosclerosis when fed a high cholesterol diet, but not when fed a regular chow diet. In order to determine whether mucosal administration of the plaque antigen β2GPI could suppress atherogenic processes, LDL-RD mice were fed low, oral tolerance inducing doses of human and bovine β2GPI, and the assessed for alterations in response to diet."}},
  "data": [
    {"molecule": "HSP65: recombinant human HSP 65 according to Example 2 and Table 2 (protein, UniProt P10809 27-573, looked up) 60 kDa heat shock protein, …: AKDVKFGADARALMLQGVDLLADAVAVTMGPKGRTVIIEQSWGSPKVTKDGVTVAKSIDLKDKYKNIGAKLVQDVANNTNEEAGDGTTTATVLARSIAKEGFEKISKGANPVEIRRGVMLAVDAVIAELKKQSKPVTTPEEIAQVATISANGDKEIGNIISDAMKKVGRKGVITVKDGKTLNDELEIIEGMKFDRGYISPYFINTSKGQKCEFQDAYVLLSEKKISSIQSIVPALEIANAHRKPLVIIAEDVDGEALSTLVLNRLKVGLQVVAVKAPGFGDNRKNQLKDMAIATGGAVFGEEGLTLNLEDVQPHDLGKVGEVIVTKDDAMLLKGKGDKAQIEKRIQEIIEQLDVTTSEYEKEKLNERLAKLSDGVAVLKVGGTSDVEVNEKKDRVTDALNATRAAVEEGIVLGGGCALLRCIPALDSLTPANEDQKIGIEIIKRTLKIPAMTIAKNAGVEGSLIVEKIMQSSSEVGYDAMAGDFVNMVEKGIIDPTKVVRTALLDAAGVASLLTTAEVVVTEIPKEEKDPGMGAMGGMGGGMGGGMF", "values": [
      {"measurement": "Aortic sinus lesion (μm^2)", "setting": "LDL-RD mice [1]; intranasal 1 μg/mouse", "result": "17109 ± 2053", "unit": "μm^2"},
      {"measurement": "Aortic sinus lesion (μm^2)", "setting": "LDL-RD mice [1]; intranasal 10 μg/mouse", "result": "22292 ± 2691", "unit": "μm^2"}
    ]},
    {"molecule": "B-β2GPI: head of Table 5; text and footnote say human β2GPI, 50 μg/mouse orally (protein, UniProt P02749 20-345, looked up) Beta-2-glycoprotein 1: GRTCPKPDDLPFSTVVPLKTFYEPGEEITYSCKPGYVSRGGMRKFICPLTGLWPINTLKCTPRVCPFAGILENGAVRYTTFEYPNTISFSCNTGFYLNGADSAKCTEEGKWSPELPVCAPIICPPPSIPTFATLRVYKPSAGNNSLYRDTAVFECLPQHAMFGNDTITCTTHGNWTKLPECREVKCPFPSRPDNGFVNYPAKPTLYYKDKATFGCHDGYSLDGPEEIECTKLGNWSAMPSCKASCKVPVKKATVVYQGERVKIQEKFKNGMLHGDKVSFFCKNKEKKCSYTEDAQCIDGTIEVPKCFKEHSSLAFWKTDASDVKPC", "values": [
      {"measurement": "Aortic sinus lesion (μm^2)", "setting": "ApoE-KO mice", "result": "221042 ± 14472", "unit": "μm^2"}
    ]},
    {"molecule": "B-β2 GPI: bovine beta2-glycoprotein I purified from serum (protein, UniProt P17690 20-345, looked up) Beta-2-glycoprotein 1: GRTCPKPDELPFSTVVPLKRTYEPGEQIVFSCQPGYVSRGGIRRFTCPLTGLWPINTLKCMPRVCPFAGILENGTVRYTTFEYPNTISFSCHTGFYLKGASSAKCTEEGKWSPDLPVCAPITCPPPPIPKFASLSVYKPLAGNNSFYGSKAVFKCLPHHAMFGNDTVTCTEHGNWTQLPECREVRCPFPSRPDNGFVNHPANPVLYYKDTATFGCHETYSLDGPEEVECSKFGNWSAQPSCKASCKLSIKRATVIYEGERVAIQNKFKNGMLHGQKVSFFCKHKEKKCSYTEDAQCIDGTIEIPKCFKEHSSLAFWKTDASDVKPC", "values": [
      {"measurement": "Aortic sinus lesion (μm^2)", "setting": "LDL-RD mice [2]; oral 50 μg", "result": "27422 ± 3007", "unit": "μm^2"},
      {"measurement": "Aortic sinus lesion (μm^2)", "setting": "LDL-RD mice [2]; oral 500 μg", "result": "20781 ± 2290", "unit": "μm^2"},
      {"measurement": "reduction of atherosclerosis as compared with BSA-fed controls", "setting": "LDL-RD mice [2]; oral 50 μg/dose", "result": 57, "unit": "%"},
      {"measurement": "reduction of atherosclerosis as compared with BSA-fed controls", "setting": "LDL-RD mice [2]; oral 500 μg/dose", "result": 43, "unit": "%"}
    ]}
  ]
}
